A word on the kcat: it is the maximal rate divided by the concentration of active sites. As a reminder, the kcat/Km is the turnover number divided by the Michaelis constant.

We go through two molecules from PMC8840469, “Directed Evolution of a Nonheme Diiron N-oxygenase AzoC for Improving Its Catalytic Efficiency toward Nitrogen Heterocycle Substrates” (Molecules, 2022).

The test system of one data set is T1, AzoC.
T1 construct: nonheme diiron enzyme
Description: HPLC, initial velocity, Michaelis-Menten fit. The data set is classed as biochemical, Streptomyces chattanoogensis. The settings on record: 30 °C, 1 h; 5.2 μM enzyme; substrate 0.05-2 mM; general in vitro reaction (not restated for kinetics): NADH 0.1 mM, PMS 0.75 mM, 20 mM HEPES pH 7.5, but 3 μM enzyme; read-out: Substrate: 2-methoxypyrimidin-5-amine / Km. An excerpt: (§1) HPLC, initial velocity, Michaelis-Menten fit on AzoC

Another data set concerns T2, COc1ncc(N)cn1.
T2 construct: nonheme diiron enzyme
Description: HPLC, initial velocity, Michaelis-Menten fit. The data set is classed as biochemical, Streptomyces chattanoogensis. The conditions noted are these: 30 °C, 1 h, 5.2 μM enzyme, substrate 0.05-2 mM, general in vitro reaction (not restated for kinetics): NADH 0.1 mM, PMS 0.75 mM, 20 mM HEPES pH 7.5.
Description: as §1

Take `COc1ncc(N)cn1` [compound 3, 2-methoxypyrimidin-5-amine]: the Km in the data set on AzoC was 510 ± 59 µM.
As for AzoC (Streptomyces chattanoogensis), in the data set with COc1ncc(N)cn1, the Km worked out at 650 ± 120 µM, the kcat amounted to 0.018 ± 0.0014 s⁻¹ and the kcat/Km turned out to be 27.7 M⁻¹ s⁻¹.
